Positions count from the first letter of the chain named. Numbers in names are those of the source.
T1: CD25 on the surface of CTLL-2 cells (mouse cytotoxic T lymphocyte cell line) (mouse, UniProt P01590 22-268)
T1 sequence (looked up): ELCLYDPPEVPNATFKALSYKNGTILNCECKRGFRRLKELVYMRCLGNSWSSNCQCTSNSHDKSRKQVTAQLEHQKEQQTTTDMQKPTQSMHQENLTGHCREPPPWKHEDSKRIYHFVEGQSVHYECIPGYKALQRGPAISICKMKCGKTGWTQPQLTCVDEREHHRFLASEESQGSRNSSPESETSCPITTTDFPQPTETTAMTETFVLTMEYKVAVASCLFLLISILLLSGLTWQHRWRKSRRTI

T2: CD25 protein (from Example 2)
T2 chain: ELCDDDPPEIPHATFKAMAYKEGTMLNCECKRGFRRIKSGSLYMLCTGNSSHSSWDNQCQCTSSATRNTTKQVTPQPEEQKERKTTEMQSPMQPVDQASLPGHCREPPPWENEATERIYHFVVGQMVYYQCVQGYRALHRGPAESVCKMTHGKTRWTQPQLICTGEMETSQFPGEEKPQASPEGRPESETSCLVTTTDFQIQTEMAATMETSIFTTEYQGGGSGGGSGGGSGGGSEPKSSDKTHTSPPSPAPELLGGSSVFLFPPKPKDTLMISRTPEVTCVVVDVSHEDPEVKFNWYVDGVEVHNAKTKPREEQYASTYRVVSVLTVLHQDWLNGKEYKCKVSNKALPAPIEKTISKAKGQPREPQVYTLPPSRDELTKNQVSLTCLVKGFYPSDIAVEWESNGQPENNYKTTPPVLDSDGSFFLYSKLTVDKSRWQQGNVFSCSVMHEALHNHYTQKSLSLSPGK

T3: CD25 on the surface of NK92 cells (human NK cell line) (human, UniProt P01589 22-272)
T3 sequence (looked up): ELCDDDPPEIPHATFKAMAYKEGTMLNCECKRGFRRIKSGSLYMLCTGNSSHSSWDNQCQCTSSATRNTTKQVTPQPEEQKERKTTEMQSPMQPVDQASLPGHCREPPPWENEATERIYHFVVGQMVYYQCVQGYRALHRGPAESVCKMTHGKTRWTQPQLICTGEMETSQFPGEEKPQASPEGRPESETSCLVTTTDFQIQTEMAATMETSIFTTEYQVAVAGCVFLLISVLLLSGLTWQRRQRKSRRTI

B1: IL-2gm6 (T3A, M39N, K49N, A73T, D109N), HIS tag (ligand)
chain: APASSSTKKTQLQLEHLLLDLQMILNGINNYKNPKLTRNLTFKFYMPKNATELKHLQCLEEELKPLEEVLNLTQSKNFHLRPRDLISNINVIVLELKGSETTFMCEYANETATIVEFLNRWITFAQSIISTLTHHHHHH
notes: Expressed in Expi293F cells; also called IL-2gm6-His
B2: IL-2gm2 (T3A, K49N), HIS tag (ligand)
chain: B1 chain with N39M, T73A, N109D
notes: Expressed in Expi293F cells; also called IL-2gm2-His
B3: IL-2gm3 (T3A, A73T) or (T3A, A73S), HIS tag (ligand)
chain: B1 chain with N39M, N49K, N109D
notes: also called IL-2gm3-His
B4: IL-2gm1 (T3A, M39N), HIS tag (ligand)
chain: B1 chain with N49K, T73A, N109D
notes: Expressed in Expi293F cells with a leader peptide; M39N is meant to make an N-glycosylation site; also called IL-2gm1-His
B5: IL-2gm4 (T3A, K49N, A73T), HIS tag (ligand)
chain: B1 chain with N39M, N109D
notes: Expressed in Expi293F cells; also called IL-2gm4-His
B6: IL-2gm7 (T3A, D109N), HIS tag (ligand)
chain: B1 chain with N39M, N49K, T73A
notes: Expressed in Expi293F cells; also called IL-2gm7-His
B7: IL-2gm11 (T3A, K49N, D109N), HIS tag (ligand)
chain: B1 chain with N39M, T73A
notes: Expressed in Expi293F cells; also called IL-2gm11-His
B8: IL-2gm12 (T3A, A73T, D109N), HIS tag (ligand)
chain: B1 chain with N39M, N49K
notes: Expressed in Expi293F cells; also called IL-2gm12-His
B9: IL-2gm13 (T3A, K49N, A73T, D109N), HIS tag (ligand)
chain: B1 chain with N39M
notes: Expressed in Expi293F cells; also called IL-2gm13-His

Molecular target: T1, CD25 on the surface of CTLL-2 cells …
Assay: cell-based or functional assay

Going from B1 to B2, the “EC50 (nM), CTLL-2 cell proliferation” value falls from 51.5 nM to 0.0638 nM (810-fold).

Going from B3 to B4, the “EC50 (nM), CTLL-2 cell proliferation” value rises from 0.165 nM to 83.4 nM (510-fold).

Going from B5 to B6, the “EC50 (nM), CTLL-2 cell proliferation” value rises from 0.0906 nM to 0.365 nM (4-fold).

Compared with B7, B8 is 4.5-fold higher in “EC50 (nM), CTLL-2 cell proliferation” value: 0.0349 nM for the first, 0.156 nM for the second.

With B9 the “EC50 (nM), CTLL-2 cell proliferation” value was 0.144 nM.

Going from B1 to B2, the “Potency relative to rhIL-2 (%), CTLL-2 cell proliferation” value rises from 0.006% to 4.55%.

First: B3
Second: B4
The “Potency relative to rhIL-2 (%), CTLL-2 cell proliferation” value of the first is higher: 1.76% for the first, 0.003% for the second.

First: B5
Second: B6
The “Potency relative to rhIL-2 (%), CTLL-2 cell proliferation” value of the first is higher: 3.2% for the first, 0.794% for the second.

First: B7
Second: B8
The “Potency relative to rhIL-2 (%), CTLL-2 cell proliferation” value of the first is higher: 8.31% for the first, 1.86% for the second.

In the case of B9, the “Potency relative to rhIL-2 (%), CTLL-2 cell proliferation” value is reported as 2.01%.

Molecular target: T2, CD25 protein (from Example 2)
Assay: ELISA on coated CD25, sample at 0.04 ug/ml, relative to rhIL-2 = 100%
Protocol: (§1) CD25 (from Example 2) was coated on a 96-well high adsorption microtiter plate (3590, Costar), washed and blocked. The sample to be tested was diluted to an appropriate concentration and added to wells.

First: B1
Second: B2
The “Binding activity (%)” value of the first is lower: 1.36% for the first, 16.6% for the second.

First: B3
Second: B4
The “Binding activity (%)” value of the first is higher: 2.27% for the first, 1.66% for the second.

Going from B5 to B6, the “Binding activity (%)” value falls from 3.18% to 1.82%.

Compared with B7, B8 is lower in “Binding activity (%)” value: 2.42% for the first, 1.97% for the second.

With B9 the “Binding activity (%)” value was 1.51%.

Molecular target: T3, CD25 on the surface of NK92 cells …
Assay: cell-based or functional assay

Compared with B1, B2 is 63-fold lower in “EC50 (nM), NK92 cell proliferation” value: 7.08 nM for the first, 0.112 nM for the second.

Going from B3 to B4, the “EC50 (nM), NK92 cell proliferation” value rises from 2.21 nM to 38.5 nM (17-fold).

Going from B5 to B6, the “EC50 (nM), NK92 cell proliferation” value rises from 0.234 nM to 0.557 nM (2.4-fold).

B7 and B8 are within 1.5-fold of each other in “EC50 (nM), NK92 cell proliferation” value: 0.28 nM for the first, 0.296 nM for the second.

With B9 the “EC50 (nM), NK92 cell proliferation” value was 0.293 nM.

Going from B1 to B2, the “Potency relative to rhIL-2 (%), NK92 cell proliferation” value rises from 0.027% to 1.72%.

Going from B3 to B4, the “Potency relative to rhIL-2 (%), NK92 cell proliferation” value falls from 0.088% to 0.005%.

Going from B5 to B6, the “Potency relative to rhIL-2 (%), NK92 cell proliferation” value falls from 0.828% to 0.347%.

Going from B7 to B8, the “Potency relative to rhIL-2 (%), NK92 cell proliferation” value falls from 0.69% to 0.653%.

With B9 the “Potency relative to rhIL-2 (%), NK92 cell proliferation” value was 0.661%.

Molecular target: T2, CD25 protein (from Example 2)
Assay: ELISA on coated CD25
Protocol: as §1

B1: no binding (tested: 1 ug/ml).
B4: no binding (tested: 1 ug/ml).

Molecular target: T2, CD25 protein (from Example 2)
Assay: ELISA on coated CD25, sample at 0.2 ug/ml, relative to rhIL-2 = 100%
Protocol: as §1

Going from B1 to B2, the “Binding activity (%)” value rises from 1.08% to 31.3%.

First: B3
Second: B4
The “Binding activity (%)” value of the first is higher: 5.62% for the first, 1.08% for the second.

Compared with B5, B6 is lower in “Binding activity (%)” value: 7.5% for the first, 2.96% for the second.

Going from B7 to B8, the “Binding activity (%)” value falls from 5.03% to 1.48%.

B9 was tested, and the “Binding activity (%)” value was 1.18%.

Molecular target: T2, CD25 protein (from Example 2)
Assay: ELISA on coated CD25, sample at 1 ug/ml, relative to rhIL-2 = 100%
Protocol: as §1

First: B1
Second: B2
The “Binding activity (%)” value of the first is lower: 0.88% for the first, 31% for the second.

Going from B3 to B4, the “Binding activity (%)” value falls from 10.3% to 0.88%.

Compared with B5, B6 is lower in “Binding activity (%)” value: 14.8% for the first, 8.1% for the second.

First: B7
Second: B8
The “Binding activity (%)” value of the first is higher: 12.5% for the first, 2.77% for the second.

B9 was tested, and the “Binding activity (%)” value was 2.23%.

From patent US20220227829A1 (SHANGHAI GP BIOTECH, published 2022)
